This data set concerns the molecule itself. Description: mass photometry.

Where “and” joins values, the source holds several entries; their conditions need not be identical. Identical values can stand only once.

Broadly, the stoichiometry N is the number of molecules, sites or subunits per partner or assembly.

B1: murine PARP2 (poly(ADP-ribose) polymerase 2) (enzyme)
chain: MAPRRQRSGSGRRVLNEAKKVDNGNKATEDDSPPGKKMRTCQRKGPMAGGKDADRTKDNRDSVKTLLLKGKAPVDPECAAKLGKAHVYCEGDDVYDVMLNQTNLQFNNNKYYLIQLLEDDAQRNFSVWMRWGRVGKTGQHSLVTCSGDLNKAKEIFQKKFLDKTKNNWEDRENFEKVPGKYDMLQMDYAASTQDESKTKEEETLKPESQLDLRVQELLKLICNVQTMEEMMIEMKYDTKRAPLGKLTVAQIKAGYQSLKKIEDCIRAGQHGRALVEACNEFYTRIPHDFGLSIPPVIRTEKELSDKVKLLEALGDIEIALKLVKSERQGLEHPLDQHYRNLHCALRPLDHESNEFKVISQYLQSTHAPTHKDYTMTLLDVFEVEKEGEKEAFREDLPNRMLLWHGSRLSNWVGILSHGLRVAPPEAPITGYMFGKGIYFADMSSKSANYCFASRLKNTGLLLLSEVALGQCNELLEANPKAQGLLRGKHSTKGMGKMAPSPAHFITLNGSTVPLGPASDTGILNPEGYTLNYNEFIVYSPNQVRMRYLLKIQFNFLQLW
For the protein B1, the “stoichiometry N” value was 2 and 3.

The values above are taken from PMC12412786 (Nucleic Acids Research, 2025).
